1 protein from PMC6537880 (Analytical chemistry, 2016) can be followed below.

The data set concerns the molecule itself. Put plainly: native MS.

B1: AAV8 capsid viral protein VP3 (natural protein)
chain: MAAGGGAPMADNNEGADGVGSSSGNWHCDSTWLGDRVITTSTRTWALPTYNNHLYKQISNGTSGGATNDNTYFGYSTPWGYFDFNRFHCHFSPRDWQRLINNNWGFRPKRLSFKLFNIQVKEVTQNEGTKTIANNLTSTIQVFTDSEYQLPYVLGSAHQGCLPPFPADVFMIPQYGYLTLNNGSQAVGRSSFYCLEYFPSQMLRTGNNFQFTYTFEDVPFHSSYAHSQSLDRLMNPLIDQYLYYLSRTQTTGGTANTQTLGFSQGGPNTMANQAKNWLPGPCYRQQRVSTTTGQNNNSNFAWTAGTKYHLNGRNSLANPGIAMATHKDDEERFFPSNGILIFGKQNAARDNADYSDVMLTSEEEIKTTNPVATEEYGIVADNLQQQNTAPQIGTVNSQGALPGMVWQNRDVYLQGPIWAKIPHTDGNFHPSPLMGGFGLKHPPPQILIKNTPVPADPPTTFNQSKLNSFITQYSTGQVSVEIEWELQKENSKRWNPEIQYTSNYYKSTSVDFAVNTEGVYSEPRPIGTRYLTRNL
For B1, the binding result is reported as “binds”.
